Results on 1 molecule are retold here after article PMC6614843 (2019).

Assay [1] concerns the target T1, Polβ(T304I), purified recombinant (human, UniProt P06746 1-335, T304I). In words: SPR; mean of repeats. Background: In SPR one partner is held on a chip, and binding of the other changes the refractive index at the surface.
The target in assay [2] is T2, Polβ(WT), purified recombinant (human, UniProt P06746 1-335). In words: SPR; mean of repeats.
Assay [3] concerns the target T1, Polβ(T304I), purified recombinant. In words: SPR; representative experiment.
In assay [4] the target is T2, Polβ(WT), purified recombinant. In words: SPR; representative experiment.

B1: NTD-XRCC1(1-151)-His (domain or fragment)
chain: MPEIRLRHVVSCSSQDSTHCAENLLKADTYRKWRAAKAGEKTISVVLQLEKEEQIHSVDIGNDGSAFVEVLVGSSAGGAGEQDYEVLLVTSSFMSPSESRSGSNPNRVRMFGPDKLVRAAAEKRWDRVKIVCSQPYSKDSPFGLSFVRFHS
Regarding B1, the Kd (commonly the constant that tells how readily two partners part at equilibrium) in assay [1] was 3300 nM; in assay [2], 534 nM; in assay [3], 3650 nM; in assay [4], 358 nM.
